In patent US9663561B2, “Methods of treatment of cancer using SRC-modulating peptides” (The University of Toledo, priority 2006, dated 2017):

Legend:
Src = target: T1, Src (Sus scrofa, UniProt K7GM45); test: GST-CD3 pulldown of Src from LLC-PK1 cell lysates; format: binding, pig; conditions: 1 mg LLC-PK1 cell lysates
T1 construct: endogenous in cells; host or cells: LLC-PK1 (pig kidney)
Description: FIG. 4C. A Western blot showing that Src was pulled down by GST-CD3 of Na+/K+-ATPase (Na/K) and H+/K+-ATPase (H/K), but not SERCA from 1 mg LLC-PK1 cell lysates.
Cells were lysed in RIPA buffer containing 1% Nonidet P40, 0.25% sodium deoxycholate, 150 mM NaCl, 1 mM EDTA, 1 mM phenylmethylsulfonyl fluoride, 1 mM sodium orthovanadate, 1 mM NaF, 10 μg/ml aprotinin, 10 μg/mlleupeptin, and 50 mM Tris-HCl (pH 7.4). Cell lysates were cleared by centrifugation at 16,000×g for […], and the supernatants (1 mg) were either immunoprecipitated with anti-α1 antibody or incubated with different GST-fusion proteins. The complexes were then pulled down by either protein G agarose or glutathione beads (Ma et al., 2000; Haas et al., 2002) and analyzed by Western blot.

purified Na+/K+-ATPase = target: T2, purified Na+/K+-ATPase (Sus scrofa, UniProt P05024); test: In vitro GST pulldown binding assay with purified Na+/K+-ATPase; parameters: species or system pig; conditions: 2 μg purified Na+/K+-ATPase per assay
T2 construct: Na+/K+-ATPase was purified from pig kidney outer medulla using the Jorgensen method; from tissue; host or cells: pig kidney outer medulla
Description: The purified Na+/K+-ATPase was solubilized in 1% Triton X-100 PBS and centrifuged at 100,000×g for 30 min. The supernatant was collected for the binding assay. GST-fusion proteins (5 μg) were conjugated on glutathione beads and incubated with the solubilized Na+/K+-ATPase in 500 μl PBS in the presence of 0.5% Triton X-100 at room temperature for 30 min. The beads were washed with the same buffer for four times. The bound Na+/K+ATPase was resolved on 10% SDS-PAGE and detected by Western blot. Reciprocal binding assay using GST-Na+/K+-ATPase constructs (5 μg) and purified Src lacking of first 85 amino acids (200 ng) or His-tagged Src constructs (100 ng) was done similarly. To test if native Na+/K+-ATPase binds Src, the above experiments were repeated in the absence of Triton X-100. To make the Na+/K+-ATPase/Src complex, 2-5 μg of the purified Na+/K+ATPase was incubated with 4.5 U of Src (˜10 ng) in PBS in the absence of Triton X-100 at room temperature for 30 min. The complex was either used for the experiments directly as indicated or collected by centrifugation at 100,000×g for 30 min.

[1] = target: T3, Na+/K+-ATPase/Src complex (Sus scrofa, UniProt P05024); test: Src pY418 phosphorylation of the Na+/K+-ATPase/Src complex (Western blot); format: biochemical; conditions: 5 μg GST fusion preincubated with 2 μg Na+/K+-ATPase before adding Src (4.5 U)
T3 construct: Na+/K+-ATPase was purified from pig kidney outer medulla using the Jorgensen method; tissue Upstate Biotechnology (Src only); host or cells: pig kidney outer medulla (Na+/K+-ATPase)
Description: The Src kinase activity was assayed using a commercial kit (Haas et al., 2000). To determine how Na+/K+-ATPase affects Src kinase activity, the purified Src (4.5 U) was incubated with 5 μg of the purified Na+/K+-ATPase in the Src assay buffer for 30 min at room temperature. Afterward, both control Src or the Na+/K+-ATPase-bound Src were exposed to 10 μM ouabain and Src kinase activity was determined. In other experiments, the Src pY418 was measured by anti-pY418 antibody to indicate Src activation (Ma et al., 2000). To do so, the purified Src (4.5 U) was incubated with different amounts of the purified Na+/K+-ATPase or GST-Na+/K+ATPase constructs in phosphate-buffered saline (PBS) for 30 min at 37° C. Afterward, 2 mM ATP/Mg2+ was added. The reaction continued for 5 min at 37° C. and was stopped by addition of SDS sample buffer.
The purified Na+/K+-ATPase was solubilized in 1% Triton X-100 PBS and centrifuged at 100,000×g for 30 min. The supernatant was collected for the binding assay. GST-fusion proteins (5 μg) were conjugated on glutathione beads and incubated with the solubilized Na+/K+-ATPase in 500 μl PBS in the presence of 0.5% Triton X-100 at room temperature for 30 min. The beads were washed with the same buffer for four times. The bound Na+/K+ATPase was resolved on 10% SDS-PAGE and detected by Western blot. […]

B1: GST-SERCA-CD3: GST fusion of the CD3 from rat heart SERCA 2a (protein)
chain: GTRRMAKKNAIVRSLPSVETLGCTSVICSDKTGTLTTNQMSVCRMFILDKVEGDTCSLNEFTITGSTYAPIGEVQKDDKPVKCHQYDGLVELATICALCNDSALDYNEAKGVYEKVGEATETALTCLVEKMNVFDTELKGLSKIERANACNSVIKQLMKKEFTLEFSRDRKSMSVYCTPNKPSRTSMSKMFVKGAPEGVIDRCTHIRVGSTKVPMTPGVKQKIMSVIREWGSGSDTLRCLALATHDNPLRREEMHLEDSANFIKYETNLTFVGCVGMLDPPRIEVASSVKLCRQAGIRVIMITGDNKGTAVAICRRIGIFGQDEDVTSKAFTGREFDELSPSAQRDACLNARCFARVEPSHKSKIVEFLQSFDEITAMTGDGVNDAPALKKSEIGIAMGSGTAVAKTASEMVLADDNFSTIVAAVEEGRAIYNNMKQFIRYLISSNV
For B1, the “pulldown of Src from LLC-PK1 cell lysates” value (Src) was “not”.

B2: GST-SH2: GST fusion of Src SH2 domain (protein)
chain: WYFGKITRRESERLLLNPENPRGTFLVRESETTKGAYCLSVSDFDNAKGLNVKHYKIRKLDSGGFYITSRTQFSSLQQLVAYYSKHADGLCHRLTNVC
modifications: left off: a dimerising Fc or GST
notes: GST fusion of Src SH2 domain
In the case of B2, the “binding to the Na+/K+-ATPase” value (purified Na+/K+-ATPase) is reported as “Binding”.

B3: GST-kinase: GST fusion of Src kinase domain (protein)
chain: QTQGLAKDAWEIPRESLRLEVKLGQGCFGEVWMGTWNGTTRVAIKTLKPGTMSPEAFLQEAQVMKKLRHEKLVQLYAVVSEEPIYIVTEYMSKGSLLDFLKGEMGKYLRLPQLVDMAAQIASGMAYVERMNYVHRDLRAANILVGENLVCKVADFGLARLIEDNEYTARQGAKFPIKWTAPEAALYGRFTIKSDVWSFGILLTELTTKGRVPYPGMVNREVLDQVERGYRMPCPPECPESLHDLMCQCWRKDPEERPTFEYLQAFLEDYFTSTEPQYQPGENL
modifications: left off: a dimerising Fc or GST
notes: GST fusion of Src kinase domain
B3 was tested, and the “binding to the Na+/K+-ATPase” value (purified Na+/K+-ATPase) was “Binding” and the “Src pY418 in presence of Na+/K+-ATPase” value [1] was “significantly increased Src pY418”.
